Experimental data from patent US20180155451A1 (published 2018).

T1: FcγRIIa R type extracellular domain with C-terminal His tag (human, UniProt P12318 34-217)
T1 construct: extracellular domain; also called FcgRIIa R; FcgRIIaR; not shown: His tag at the C terminus
T1 sequence (looked up): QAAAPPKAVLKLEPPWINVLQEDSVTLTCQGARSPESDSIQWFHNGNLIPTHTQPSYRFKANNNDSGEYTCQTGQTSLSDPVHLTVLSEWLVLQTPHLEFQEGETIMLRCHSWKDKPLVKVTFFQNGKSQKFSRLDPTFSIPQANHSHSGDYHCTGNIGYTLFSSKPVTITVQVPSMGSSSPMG

T2: FcγRIIb extracellular domain with C-terminal His tag (human, UniProt P31994 43-217)
T2 construct: extracellular domain; also called FcgRIIb; 2b; not shown: His tag at the C terminus
T2 sequence (looked up): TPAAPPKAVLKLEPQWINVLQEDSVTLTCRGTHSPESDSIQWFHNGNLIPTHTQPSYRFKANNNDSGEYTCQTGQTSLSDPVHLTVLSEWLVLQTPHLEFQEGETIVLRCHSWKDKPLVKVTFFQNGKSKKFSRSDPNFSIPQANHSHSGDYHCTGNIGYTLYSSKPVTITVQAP

T3: FcγRIIa H type extracellular domain with C-terminal His tag (human, UniProt P12318 34-217)
T3 construct: extracellular domain; also called FcgRIIa H; FcgRIIaH; not shown: His tag at the C terminus
T3 sequence (looked up): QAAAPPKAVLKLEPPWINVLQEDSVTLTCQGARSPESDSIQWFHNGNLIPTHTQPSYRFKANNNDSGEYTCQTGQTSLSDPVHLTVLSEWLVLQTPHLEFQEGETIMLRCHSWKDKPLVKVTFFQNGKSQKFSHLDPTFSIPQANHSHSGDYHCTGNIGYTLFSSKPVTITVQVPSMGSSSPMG

B1: H240-FA024/H240-FB082/L73-k0 (antibody, human IgG1, kappa)
heavy 1: QDQLVQSGAEVKKPGASVKVSCKASGFNIKDTYIQWVRQAPGQGLEWMGRIDPLRKQTKYREKFEGRVTITADTSTNTAYMELSSLRSEDTAVYYCVRSGREFDYWGQGTLVTVSSASTKGPSVFPLAPSSKSTSGGTAALGCLVKDYFPEPVTVSWNSGALTSGVHTFPAVLQSSGLYSLSSVVTVPSSSLGTKTYTCNVNHKPSNTKVDKKVEPKSCDKTHTCPPCPAPEYYWGPSVFLFPPKPKDTLMISRTPEVTCVVVDVSDEEPKVKFNWYVDGVEVHNAKTKPREEQYNATYRVVSVLTVLHQDWLNGKEYKCKVSNKALPAPIEKTISKAKGQPREPQVYTLPPSRKEKTKNQVSLTCLVKGFYPSDIAVEWESNGQPENNYKTTPPVLDSDGSFFLYSKLTVDKSRWQQGNVFSCSVMHEALHNRYTQKSLSLSP
heavy 2: QDQLVQSGAEVKKPGASVKVSCKASGFNIKDTYIQWVRQAPGQGLEWMGRIDPLRKQTKYREKFEGRVTITADTSTNTAYMELSSLRSEDTAVYYCVRSGREFDYWGQGTLVTVSSASTKGPSVFPLAPSSKSTSGETAALGCLVEDYFPEPVTVSWNSGALTSGVHTFPAVLQSSGLYSLSSVVTVPSSSLGTQTYICNVNHKPSNTKVDKKVEPKSCDKTHTCPPCPAPELLGGPSVFLFPPKPKDTLMISRTPEVTCVVVDVSHEEPEVQFNWYVDGVEVHNAETKPREEQYNSTYRVVSVLTVLHQDWLNGKEYKCKVSNDALPMPIEETISKAKGQPREPQVYTLPPSREEMTKNQVSLTCLVKGFYPSDIAVEWESEGQPENNYKTTPPVLDSDGSFFLYSKLTVDKSRWQQGNVFSCSVMHEALHNHYTQESLSLSP
light: DIQMTQSPSSLSASVGDRVTITCRASQDIHKYIAWYQQKPGQAPRLLIQYTSTLQPGVPSRFSGSGSGTDYTFTISSLQPEDIATYYCLQYEQLRTFGGGTKVEIKRTVAAPSVFIFPPSDEQLKSGTASVVCLLNNFYPREAKVQWKVDNALQSGNSQESVTEQDSKDSTYSLSSTLTLSKADYEKHKVYACEVTHQGLSSPVTKSFNRGEC
notes: Heterodimerized anti-EREG IgG1 antibody; A chain altered from H240-AK072, B chain altered from H240-BH076
B2: H240-FA030/H240-FB065/L73-k0 (antibody, human IgG1, kappa)
heavy 1: QDQLVQSGAEVKKPGASVKVSCKASGFNIKDTYIQWVRQAPGQGLEWMGRIDPLRKQTKYREKFEGRVTITADTSTNTAYMELSSLRSEDTAVYYCVRSGREFDYWGQGTLVTVSSASTKGPSVFPLAPSSKSTSGGTAALGCLVKDYFPEPVTVSWNSGALTSGVHTFPAVLQSSGLYSLSSVVTVPSSSLGTKTYTCNVNHKPSNTKVDKKVEPKSCDKTHTCPPCPAPEYYWGPSVFLFPPKPKDTLMISRTPEVTCVVVDVSDEEPKVKFNWYVDGVEVHNAKTKPREEQYNATYRVVSVLTVLHQDWLNGKEYKCKVSNKALPAPIEKTISKAKGQPREPQVYTLPPSRKEMTKNQVSLTCLVKGFYPSDIAVEWESNGQPENNYKTTPPVLDSDGSFFLYSKLTVDKSRWQQGNVFSCSVMHEALHNRYTQKSLSLSP
heavy 2: QDQLVQSGAEVKKPGASVKVSCKASGFNIKDTYIQWVRQAPGQGLEWMGRIDPLRKQTKYREKFEGRVTITADTSTNTAYMELSSLRSEDTAVYYCVRSGREFDYWGQGTLVTVSSASTKGPSVFPLAPSSKSTSESTAALGCLVKDYFPEPVTVSWNSGALTSGVHTFPAVLQSSGLYSLSSVVTVPSSNFGTQTYTCNVDHKPSNTKVDKTVEPKSCDKTHTCPPCPAPELLGGPSVFLFPPKPKDTLMISRTPEVTCVVVDVSHEEPEVQFNWYVDGVEVHNAETKPREEQYNSTYRVVSVLTVLHQDWLNGKEYKCKVSNDALPMPIEETISKAKGQPREPQVYTLPPSREEMTKNQVSLTCLVKGFYPSDIAVEWESNGQPENNYKTTPPVLDSDGSFFLYSKLTVDKSRWQQGNVFSCSVMHEALHNHYTQESLSLSP
light: DIQMTQSPSSLSASVGDRVTITCRASQDIHKYIAWYQQKPGQAPRLLIQYTSTLQPGVPSRFSGSGSGTDYTFTISSLQPEDIATYYCLQYEQLRTFGGGTKVEIKRTVAAPSVFIFPPSDEQLKSGTASVVCLLNNFYPREAKVQWKVDNALQSGNSQESVTEQDSKDSTYSLSSTLTLSKADYEKHKVYACEVTHQGLSSPVTKSFNRGEC
notes: as for B1
B3: H240-FA030/H240-FB064/L73-k0 (antibody, human IgG1, kappa)
heavy 1: QDQLVQSGAEVKKPGASVKVSCKASGFNIKDTYIQWVRQAPGQGLEWMGRIDPLRKQTKYREKFEGRVTITADTSTNTAYMELSSLRSEDTAVYYCVRSGREFDYWGQGTLVTVSSASTKGPSVFPLAPSSKSTSGGTAALGCLVKDYFPEPVTVSWNSGALTSGVHTFPAVLQSSGLYSLSSVVTVPSSSLGTKTYTCNVNHKPSNTKVDKKVEPKSCDKTHTCPPCPAPEYYWGPSVFLFPPKPKDTLMISRTPEVTCVVVDVSDEEPKVKFNWYVDGVEVHNAKTKPREEQYNATYRVVSVLTVLHQDWLNGKEYKCKVSNKALPAPIEKTISKAKGQPREPQVYTLPPSRKEMTKNQVSLTCLVKGFYPSDIAVEWESNGQPENNYKTTPPVLDSDGSFFLYSKLTVDKSRWQQGNVFSCSVMHEALHNRYTQKSLSLSP
heavy 2: QDQLVQSGAEVKKPGASVKVSCKASGFNIKDTYIQWVRQAPGQGLEWMGRIDPLRKQTKYREKFEGRVTITADTSTNTAYMELSSLRSEDTAVYYCVRSGREFDYWGQGTLVTVSSASTKGPSVFPLAPSSKSTSESTAALGCLVKDYFPEPVTVSWNSGALTSGVHTFPAVLQSSGLYSLSSVVTVPSSNFGTQTYTCNVDHKPSNTKVDKTVEPKSCDKTHTCPPCPAPELLGGPSVFLFPPKPKDTLMISRTPEVTCVVVDVSHEEPEVQFNWYVDGVEVHNAKTKPREEQYNSTYRVVSVLTVLHQDWLNGKEYKCKVSNDALPMPIEETISKAKGQPREPQVYTLPPSREEMTKNQVSLTCLVKGFYPSDIAVEWESNGQPENNYKTTPPVLDSDGSFFLYSKLTVDKSRWQQGNVFSCSVMHEALHNHYTQESLSLSP
light: DIQMTQSPSSLSASVGDRVTITCRASQDIHKYIAWYQQKPGQAPRLLIQYTSTLQPGVPSRFSGSGSGTDYTFTISSLQPEDIATYYCLQYEQLRTFGGGTKVEIKRTVAAPSVFIFPPSDEQLKSGTASVVCLLNNFYPREAKVQWKVDNALQSGNSQESVTEQDSKDSTYSLSSTLTLSKADYEKHKVYACEVTHQGLSSPVTKSFNRGEC
notes: as for B1

Legend:
Experiment in all cases: SPR (Biacore), antibody captured on chip, soluble FcgR as analyte; experiment 1
[1] = target: T4, FcγRIIIa V type extracellular domain with C-terminal His tag (human, UniProt P08637 17-208)
T4 construct: extracellular domain; also called FcgRIIIa V; FcgRIIIaV; not shown: His tag at the C terminus
T4 sequence (P08637 17-208 F176V): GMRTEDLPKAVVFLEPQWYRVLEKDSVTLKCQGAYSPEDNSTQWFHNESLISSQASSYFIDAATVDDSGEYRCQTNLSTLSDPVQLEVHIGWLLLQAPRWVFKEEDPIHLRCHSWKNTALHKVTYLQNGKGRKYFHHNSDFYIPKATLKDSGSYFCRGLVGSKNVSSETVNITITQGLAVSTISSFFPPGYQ
Experimental: (§1) Antibodies of interest were analyzed for the interaction to FcgR according to the method described in Reference Example 8.
(§2) Analysis of interaction between obj ective antibody and the FcγR was carried out using Biacore T100 (GE Healthcare), Biacore T200, Biacore A100, and Biacore 4000. HBS-EP+ (GE Healthcare) was used as the running buffer, and the measurement temperature was set to 25° C. Chips produced by immobilizing the antigen peptide by the amine coupling method to a Series S sensor Chip CM5 (GE Healthcare), chips produced by allowing preliminarily biotinylated antigen peptides to interact with and immobilize onto a Series S Sensor Chip SA (certified) (GE Healthcare), chips produced by immobilizing Protein L (ACTIGEN, BioVision) to Series S Sencor Chip CM5 (GE Healthcare), or chips produced by immobilizing Protein A/G (Thermo Scientific) to Series S Sencor Chip CM5 (GE Healthcare) were used. Antibodies of interest were captured onto these chips, and allowed to interact to each FcγR diluted with running buffer. To regenerate and repeatedly use the chip, the antibodies captured onto the chip were washed off by reacting 10 mM glycine-HCl, pH 1.5.

[2] = target: T5, FcγRIa extracellular domain with C-terminal His tag (human, UniProt P12314 16-292)
T5 construct: extracellular domain; also called FcgRI; FcgRIa; not shown: His tag at the C terminus
T5 sequence (P12314 16-292): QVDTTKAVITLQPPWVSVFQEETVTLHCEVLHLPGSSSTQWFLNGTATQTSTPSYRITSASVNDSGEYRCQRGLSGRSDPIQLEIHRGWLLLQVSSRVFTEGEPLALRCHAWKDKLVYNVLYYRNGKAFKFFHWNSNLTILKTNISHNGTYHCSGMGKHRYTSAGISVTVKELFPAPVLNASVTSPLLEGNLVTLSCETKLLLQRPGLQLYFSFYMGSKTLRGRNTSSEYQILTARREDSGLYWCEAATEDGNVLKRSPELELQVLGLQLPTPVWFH
Experimental: as §1, §2

[3] = target: T6, FcγRIIIa F type extracellular domain with C-terminal His tag (human, UniProt P08637 17-208)
T6 construct: extracellular domain; also called FcgRIIIa F; FcgRIIIaF; not shown: His tag at the C terminus
T6 sequence (P08637 17-208): as the sequence (P08637 17-208 F176V) above, with V160F counted along it
Experimental: as §1, §2

[4] = target: T1, FcγRIIa R type extracellular domain …
Experimental: as §1, §2

[5] = target: T2, FcγRIIb extracellular domain with …
Experimental: as §1, §2

[6] = target: T3, FcγRIIa H type extracellular domain …
Experimental: as §1, §2

Row | Binder | Kd [1] [nM] | Kd [2] [nM] | Kd [3] [nM] | Kd [4] [nM] | Kd [5] [nM] | Kd [6] [nM]
1 | B1 | 1.3 | 0.13 | 4.6 | 240 | 1500 | 80
2 | B2 | 1.1 | 0.1 | 4.6 | 340 | 2400 | 99
3 | B3 | 1.5 | 0.057 | 5.3 | 290 | 1800 | 96
